The source of these data is patent US6858382 (GENERAL HOSPITAL, dated 2005).

This assay deals with T1, TetR-RasV12A186 (bacterial transposon Tn10, UniProt P04483 1-207; P01112 1-189).
T1 construct: Yeast two-hybrid bait
Kind of assay: yeast two-bait interaction trap, TetOp-URA3 reporter (growth without uracil).

T1 sequence (P04483 1-207, tags or fused parts left off): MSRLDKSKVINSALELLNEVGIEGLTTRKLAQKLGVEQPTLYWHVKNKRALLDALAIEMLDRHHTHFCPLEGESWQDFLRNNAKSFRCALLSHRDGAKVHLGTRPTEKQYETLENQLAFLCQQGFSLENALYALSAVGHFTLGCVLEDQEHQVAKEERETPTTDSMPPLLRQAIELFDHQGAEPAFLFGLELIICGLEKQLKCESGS
Protocol: The LexA and TetR fusion bait proteins were expressed in a yeast cell that also contained an integrated TetOp-URA3 reporter and an episomal LexAOp-lacZ reporter. Expression of baits in these "two-bait" cells was under the control of the ADH1 promoter. The TetOp-URA3 reporter was integrated into the LYS2 gene. The LexAOp-lacZ reporter, a derivative of pSH18–34, was carried on pCXW24, a 2 μm plasmid with a LYS2 marker.

B1: B42-Mxi1 (other, UniProt P50539 1-228, looked up, not shown: large carriers)
chain: MERVKMINVQRLLEAAEFLERRERECEHGYASSFPSMPSPRLQHSKPPRRLSRAQKHSSGSSNTSTANRSTHNELEKNRRAHLRLCLERLKVLIPLGPDCTRHTTLGLLNKAKAHIKKLEEAERKSQHQLENLEREQRFLKWRLEQLQGPQEMERIRMDSIGSTISSDRSDSEREEIEVDVESTEFSHGEVDNISTTSISDIDDHSSLPSIGSDEGYSSASVKLSFTS
notes: Yeast two-hybrid prey, used as a positive control with Max
For B1, the binding result is “no binding”.
